Assay [1] addresses mouse B6 class I antigens (mouse). In words: RMA-S cell MHC stabilisation, peptide 25 ug/ml, flow cytometry with FITC anti-D^b or anti-K^b; % increase of MFI over medium alone.
Assay [2] shares this target. In words: Binding of 9-mer peptides within p117-139 to mouse B6 (H-2^b) class I; RMA-S cell MHC stabilisation, flow cytometry.

ALLPAVPSL [WT1 peptide human p10-18 (…)] had a Binding Affinity to Mouse MHC Class I in assay [1] of 2.2%.

In assay [2], NAPYLPSCL [WT1 peptide P130-138 (…)] gave a Binding Affinity to Mouse MHC Class I of 79%.

In the case of SSGQARMFP [WT1 peptide P121-129 (…)], the Binding Affinity to Mouse MHC Class I in assay [2] is 1%.

SCLESQPAI [WT1 peptide human p136-144 (…)] registered a Binding Affinity to Mouse MHC Class I in assay [1] of 52%.

On to QMTSQLECM [WT1 peptide p228-236 (…)], for which, in assay [1], the Binding Affinity to Mouse MHC Class I worked out at 1.2%.

As to QARMFPNAP [WT1 peptide P124-132 (…)], in assay [2], the Binding Affinity to Mouse MHC Class I came out at 1%.

On to APYLPSCLE [WT1 peptide P131-139 (…)], for which the Binding Affinity to Mouse MHC Class I in assay [2] was 1%.

As to PNAPYLPSC [WT1 peptide P129-137 (…)], in assay [2], the Binding Affinity to Mouse MHC Class I is 1%.

QASSGQARM [WT1 peptide P119-127 (…)] gave a Binding Affinity to Mouse MHC Class I in assay [2] of 2%.

Take NLYQMTSQL [WT1 peptide p225-233 (…)]: in assay [1], the Binding Affinity to Mouse MHC Class I turned out to be 5.8%.

In the case of CMTWNQMNL [WT1 peptide p235-243 (…)], in assay [1], the Binding Affinity to Mouse MHC Class I came out at 33.6%.

On to MFPNAPYLP [WT1 peptide P127-135 (…)], for which, in assay [2], the Binding Affinity to Mouse MHC Class I was 2%.

Turning to ARMFPNAPY [WT1 peptide P125-133 (…)], in assay [2], the Binding Affinity to Mouse MHC Class I turned out to be 1%.

For the molecule PSQASSGQA [WT1 peptide P117-125 (…)], in assay [2], the Binding Affinity to Mouse MHC Class I stood at 2%.

In the case of SQASSGQAR [WT1 peptide P118-126 (…)], the Binding Affinity to Mouse MHC Class I in assay [2] is 2%.

Regarding FPNAPYLPS [WT1 peptide P128-136 (…)], in assay [2], the Binding Affinity to Mouse MHC Class I was determined as 1%.

Regarding GCNKRYFKL [WT1 peptide p329-337 (…)], the Binding Affinity to Mouse MHC Class I in assay [1] was 1.2%.

ASSGQARMF [WT1 peptide P120-128 (…)] showed a Binding Affinity to Mouse MHC Class I in assay [2] of 1%.

As for NQMNLGATL [WT1 peptide p239-247 (…)], the Binding Affinity to Mouse MHC Class I in assay [1] is 1%.

YSSDNLYQM [WT1 peptide p221-229 (…)]: the Binding Affinity to Mouse MHC Class I in assay [1] was 0.8%.

For the origin of these results see US20070026008A1.
